Data: patent US20080085280A1

Key:
[1] = biological target: FcαRIR209L/γ chimeric receptor (human) (UniProt P24071); test: cell-based or functional assay
[2] = biological target: wild-type human FcαRI (human) (UniProt P24071); test: cell-based or functional assay

Substance: anti-FcαRI Fab A77 (Fab fragment of anti-FcαRI mAb, IgG1κ, clone A77)
- inhibition of IgE-mediated degranulation against irrelevant control Fab [1]: 91%
- Fab concentration giving maximal inhibition of degranulation [2]: 1 to 10 µg/mL
- inhibition of FcεRI-induced degranulation, 10 µg/ml Fab [2]: > 50%
- inhibition of IgE-mediated degranulation (β-hexosaminidase release), 10 µg/ml Fab [2]: 74%
- inhibition of IgE-mediated degranulation against irrelevant control Fab [2]: 72%
- inhibition of IgG-mediated phagocytosis of E. coli by human blood monocytes [2]: > 80%
